Laboratory results reported in article PMC9482650, “Quantitative fragmentomics allow affinity mapping of interactomes” (Nature Communications, 2022).

T1: DLG3_3, Q92796
T1 sequence (Q92796 374-475, limits assumed, looked up): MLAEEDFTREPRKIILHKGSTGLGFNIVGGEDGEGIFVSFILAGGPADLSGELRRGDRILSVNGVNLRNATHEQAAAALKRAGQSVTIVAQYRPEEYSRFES

T2: RAPGEF6, Q8TEU7
T2 sequence (Q8TEU7 525-625, limits assumed, looked up): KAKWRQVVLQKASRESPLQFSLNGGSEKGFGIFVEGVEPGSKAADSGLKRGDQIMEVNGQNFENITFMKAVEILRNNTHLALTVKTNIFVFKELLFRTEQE

T3: ARHGAP21, Q5T5U3
T3 sequence (Q5T5U3 45-169, limits assumed, looked up): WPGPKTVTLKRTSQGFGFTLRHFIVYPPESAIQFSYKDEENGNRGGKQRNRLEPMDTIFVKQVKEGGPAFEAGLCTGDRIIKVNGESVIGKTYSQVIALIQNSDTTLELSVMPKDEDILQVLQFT

T4: LIN7C, Q9NUP9
T4 sequence (Q9NUP9 88-185, limits assumed, looked up): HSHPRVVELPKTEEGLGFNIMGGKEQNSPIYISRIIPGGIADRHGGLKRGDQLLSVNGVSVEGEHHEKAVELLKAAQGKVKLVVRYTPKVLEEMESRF

T5: LNX2_3, Q8N448
T5 sequence (Q8N448 463-564, limits assumed, looked up): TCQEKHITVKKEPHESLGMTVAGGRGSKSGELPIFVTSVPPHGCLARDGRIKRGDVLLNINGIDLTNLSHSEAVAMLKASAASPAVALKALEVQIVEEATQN

T6: FRMPD1, Q5SYB0
T6 sequence (Q5SYB0 52-145, limits assumed, looked up): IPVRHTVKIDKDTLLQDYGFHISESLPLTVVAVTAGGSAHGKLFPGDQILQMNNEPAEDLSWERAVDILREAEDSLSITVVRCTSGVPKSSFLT

T7: APBA3_1, O96018
T7 sequence (O96018 389-490, limits assumed, looked up): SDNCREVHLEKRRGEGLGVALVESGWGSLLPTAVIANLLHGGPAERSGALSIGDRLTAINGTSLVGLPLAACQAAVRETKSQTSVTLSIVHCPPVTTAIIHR

T8: SHANK1, Q9Y566
T8 sequence (Q9Y566 658-767, limits assumed, looked up): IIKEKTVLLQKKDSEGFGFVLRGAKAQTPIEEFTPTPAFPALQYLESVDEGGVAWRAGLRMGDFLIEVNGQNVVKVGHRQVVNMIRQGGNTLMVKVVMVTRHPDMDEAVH

T9: TJP3_3, O95049
T9 sequence (O95049 375-456, limits assumed, looked up): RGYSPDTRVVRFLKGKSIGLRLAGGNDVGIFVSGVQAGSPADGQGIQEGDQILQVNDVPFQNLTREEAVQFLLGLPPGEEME

T10: APBA1_1, Q02410
T10 sequence (Q02410 651-752, limits assumed, looked up): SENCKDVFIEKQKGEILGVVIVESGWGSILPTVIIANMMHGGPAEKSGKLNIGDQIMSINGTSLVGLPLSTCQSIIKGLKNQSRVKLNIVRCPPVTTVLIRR

T11: LRRC7, Q96NW7
T11 sequence (Q96NW7 1440-1537, limits assumed, looked up): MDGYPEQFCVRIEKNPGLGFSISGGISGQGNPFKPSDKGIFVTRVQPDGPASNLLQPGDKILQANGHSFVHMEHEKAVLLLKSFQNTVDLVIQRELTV


Biological target: MAGI3_2, Q5TCQ9
Assay: holdup assay
Parameters: key: below the threshold = too weak to quantify, mostly under pKd 3.1 to 4
Conditions: plain residues with an end cap or a label only (N-terminal biotin on a linker: ado-ado)

Chain of MAGI3_2, Q5TCQ9 (Q5TCQ9 398-503): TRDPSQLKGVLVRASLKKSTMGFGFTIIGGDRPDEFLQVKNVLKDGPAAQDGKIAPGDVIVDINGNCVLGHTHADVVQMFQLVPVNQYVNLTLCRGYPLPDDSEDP

Row | Binder | pKd
1 | QSARLWETSI [ADAM22, Q9P0K1] | 4.22
2 | TLPRKRMSSI [GPRC6A, Q5T6X5] | 4.15

Biological target: GRID2IP_1, A4D2P6
Assay: holdup assay
Parameters: key: below the threshold = too weak to quantify, mostly under pKd 3.1 to 4
Conditions: plain residues with an end cap or a label only (N-terminal biotin on a linker: ado-ado)

Chain of GRID2IP_1, A4D2P6 (A4D2P6 1-87): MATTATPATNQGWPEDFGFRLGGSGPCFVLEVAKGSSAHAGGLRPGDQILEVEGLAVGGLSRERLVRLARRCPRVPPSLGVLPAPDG

Row | Binder | pKd
3 | QSARLWETSI [ADAM22, Q9P0K1] | below the threshold
4 | TLPRKRMSSI [GPRC6A, Q5T6X5] | below the threshold

Biological target: T1, DLG3_3, Q92796
Assay: holdup assay
Parameters: key: below the threshold = too weak to quantify, mostly under pKd 3.1 to 4
Conditions: plain residues with an end cap or a label only (N-terminal biotin on a linker: ado-ado)

Row | Binder | pKd
5 | QSARLWETSI [ADAM22, Q9P0K1] | 4.29
6 | TLPRKRMSSI [GPRC6A, Q5T6X5] | below the threshold

Biological target: NHERF4_2, Q86UT5
Assay: holdup assay
Parameters: key: below the threshold = too weak to quantify, mostly under pKd 3.1 to 4
Conditions: plain residues with an end cap or a label only (N-terminal biotin on a linker: ado-ado)

Chain of NHERF4_2, Q86UT5 (Q86UT5 220-308): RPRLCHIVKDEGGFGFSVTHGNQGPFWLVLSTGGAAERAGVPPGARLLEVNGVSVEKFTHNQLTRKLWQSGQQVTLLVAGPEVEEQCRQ

Row | Binder | pKd
7 | QSARLWETSI [ADAM22, Q9P0K1] | below the threshold
8 | TLPRKRMSSI [GPRC6A, Q5T6X5] | below the threshold

Biological target: T2, RAPGEF6, Q8TEU7
Assay: holdup assay
Parameters: key: below the threshold = too weak to quantify, mostly under pKd 3.1 to 4
Conditions: plain residues with an end cap or a label only (N-terminal biotin on a linker: ado-ado)

Row | Binder | pKd
9 | QSARLWETSI [ADAM22, Q9P0K1] | below the threshold
10 | TLPRKRMSSI [GPRC6A, Q5T6X5] | below the threshold

Biological target: T3, ARHGAP21, Q5T5U3
Assay: holdup assay
Parameters: key: below the threshold = too weak to quantify, mostly under pKd 3.1 to 4
Conditions: plain residues with an end cap or a label only (N-terminal biotin on a linker: ado-ado)

Row | Binder | pKd
11 | QSARLWETSI [ADAM22, Q9P0K1] | below the threshold
12 | TLPRKRMSSI [GPRC6A, Q5T6X5] | below the threshold

Biological target: T4, LIN7C, Q9NUP9
Assay: holdup assay
Parameters: key: below the threshold = too weak to quantify, mostly under pKd 3.1 to 4
Conditions: plain residues with an end cap or a label only (N-terminal biotin on a linker: ado-ado)

Row | Binder | pKd
13 | QSARLWETSI [ADAM22, Q9P0K1] | 4.5
14 | TLPRKRMSSI [GPRC6A, Q5T6X5] | below the threshold

Biological target: Inadl_4, Q8NI35
Assay: holdup assay
Parameters: key: below the threshold = too weak to quantify, mostly under pKd 3.1 to 4
Conditions: plain residues with an end cap or a label only (N-terminal biotin on a linker: ado-ado)

Chain of Inadl_4, Q8NI35 (Q8NI35 547-651): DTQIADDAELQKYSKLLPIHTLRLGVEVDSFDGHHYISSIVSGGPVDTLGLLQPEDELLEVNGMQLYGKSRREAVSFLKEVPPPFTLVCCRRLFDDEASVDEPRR

Row | Binder | pKd
15 | QSARLWETSI [ADAM22, Q9P0K1] | below the threshold
16 | TLPRKRMSSI [GPRC6A, Q5T6X5] | below the threshold

Biological target: LDB3, O75112
Assay: holdup assay
Parameters: key: below the threshold = too weak to quantify, mostly under pKd 3.1 to 4
Conditions: plain residues with an end cap or a label only (N-terminal biotin on a linker: ado-ado)

Chain of LDB3, O75112 (O75112 1-94): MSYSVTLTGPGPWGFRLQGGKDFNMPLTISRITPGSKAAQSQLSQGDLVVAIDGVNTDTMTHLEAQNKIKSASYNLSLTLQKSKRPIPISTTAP

Row | Binder | pKd
17 | QSARLWETSI [ADAM22, Q9P0K1] | below the threshold
18 | TLPRKRMSSI [GPRC6A, Q5T6X5] | below the threshold

Biological target: T5, LNX2_3, Q8N448
Assay: holdup assay
Parameters: key: below the threshold = too weak to quantify, mostly under pKd 3.1 to 4
Conditions: plain residues with an end cap or a label only (N-terminal biotin on a linker: ado-ado)

Row | Binder | pKd
19 | QSARLWETSI [ADAM22, Q9P0K1] | below the threshold
20 | TLPRKRMSSI [GPRC6A, Q5T6X5] | below the threshold

Biological target: NHERF4_1, Q86UT5-2
Assay: holdup assay
Parameters: key: below the threshold = too weak to quantify, mostly under pKd 3.1 to 4
Conditions: plain residues with an end cap or a label only (N-terminal biotin on a linker: ado-ado)

Chain of NHERF4_1, Q86UT5-2 (Q86UT5 other isoform, or with tags, fused parts or gaps): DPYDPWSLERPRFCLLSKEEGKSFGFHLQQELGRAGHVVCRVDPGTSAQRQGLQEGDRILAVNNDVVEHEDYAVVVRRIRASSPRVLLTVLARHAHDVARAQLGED

Row | Binder | pKd
21 | QSARLWETSI [ADAM22, Q9P0K1] | below the threshold
22 | TLPRKRMSSI [GPRC6A, Q5T6X5] | below the threshold

Biological target: T6, FRMPD1, Q5SYB0
Assay: holdup assay
Parameters: key: below the threshold = too weak to quantify, mostly under pKd 3.1 to 4
Conditions: plain residues with an end cap or a label only (N-terminal biotin on a linker: ado-ado)

Row | Binder | pKd
23 | QSARLWETSI [ADAM22, Q9P0K1] | below the threshold
24 | TLPRKRMSSI [GPRC6A, Q5T6X5] | below the threshold

Biological target: T7, APBA3_1, O96018
Assay: holdup assay
Parameters: key: below the threshold = too weak to quantify, mostly under pKd 3.1 to 4
Conditions: plain residues with an end cap or a label only (N-terminal biotin on a linker: ado-ado)

Row | Binder | pKd
25 | QSARLWETSI [ADAM22, Q9P0K1] | below the threshold
26 | TLPRKRMSSI [GPRC6A, Q5T6X5] | below the threshold

Biological target: AHNAK1, Q09666
Assay: holdup assay
Parameters: key: below the threshold = too weak to quantify, mostly under pKd 3.1 to 4
Conditions: plain residues with an end cap or a label only (N-terminal biotin on a linker: ado-ado)

Chain of AHNAK1, Q09666 (Q09666 4-100): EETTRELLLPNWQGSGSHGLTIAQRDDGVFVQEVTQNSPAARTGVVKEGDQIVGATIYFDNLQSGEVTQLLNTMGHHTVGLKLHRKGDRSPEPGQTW

Row | Binder | pKd
27 | QSARLWETSI [ADAM22, Q9P0K1] | below the threshold
28 | TLPRKRMSSI [GPRC6A, Q5T6X5] | below the threshold

Biological target: PARD3_3, Q8TEW0
Assay: holdup assay
Parameters: key: below the threshold = too weak to quantify, mostly under pKd 3.1 to 4
Conditions: plain residues with an end cap or a label only (N-terminal biotin on a linker: ado-ado)

Chain of PARD3_3, Q8TEW0 (Q8TEW0 582-685): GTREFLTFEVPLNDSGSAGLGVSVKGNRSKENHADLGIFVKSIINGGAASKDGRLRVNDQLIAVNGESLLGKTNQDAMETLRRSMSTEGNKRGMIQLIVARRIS

Row | Binder | pKd
29 | QSARLWETSI [ADAM22, Q9P0K1] | 3.74
30 | TLPRKRMSSI [GPRC6A, Q5T6X5] | below the threshold

Biological target: MAGI2_3, Q86UL8
Assay: holdup assay
Parameters: key: below the threshold = too weak to quantify, mostly under pKd 3.1 to 4
Conditions: plain residues with an end cap or a label only (N-terminal biotin on a linker: ado-ado)

Chain of MAGI2_3, Q86UL8 (Q86UL8 600-682): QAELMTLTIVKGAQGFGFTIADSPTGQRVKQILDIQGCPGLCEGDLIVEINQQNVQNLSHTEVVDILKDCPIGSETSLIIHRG

Row | Binder | pKd
31 | QSARLWETSI [ADAM22, Q9P0K1] | below the threshold
32 | TLPRKRMSSI [GPRC6A, Q5T6X5] | below the threshold

Biological target: PTPN3, P26045
Assay: holdup assay
Parameters: key: below the threshold = too weak to quantify, mostly under pKd 3.1 to 4
Conditions: plain residues with an end cap or a label only (N-terminal biotin on a linker: ado-ado)

Chain of PTPN3, P26045 (P26045 505-587): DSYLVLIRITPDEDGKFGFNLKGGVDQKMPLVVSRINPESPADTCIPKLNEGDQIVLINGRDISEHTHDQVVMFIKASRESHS

Row | Binder | pKd
33 | QSARLWETSI [ADAM22, Q9P0K1] | 4.83
34 | TLPRKRMSSI [GPRC6A, Q5T6X5] | 4.11

Biological target: DLG2_2, Q15700
Assay: holdup assay
Parameters: key: below the threshold = too weak to quantify, mostly under pKd 3.1 to 4
Conditions: plain residues with an end cap or a label only (N-terminal biotin on a linker: ado-ado)

Chain of DLG2_2, Q15700 (Q15700 189-283): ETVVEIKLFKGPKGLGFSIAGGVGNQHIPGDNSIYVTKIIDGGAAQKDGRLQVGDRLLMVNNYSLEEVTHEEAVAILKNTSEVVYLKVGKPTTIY

Row | Binder | pKd
35 | QSARLWETSI [ADAM22, Q9P0K1] | 3.85
36 | TLPRKRMSSI [GPRC6A, Q5T6X5] | below the threshold

Biological target: T8, SHANK1, Q9Y566
Assay: holdup assay
Parameters: key: below the threshold = too weak to quantify, mostly under pKd 3.1 to 4
Conditions: plain residues with an end cap or a label only (N-terminal biotin on a linker: ado-ado)

Row | Binder | pKd
37 | QSARLWETSI [ADAM22, Q9P0K1] | 3.72
38 | TLPRKRMSSI [GPRC6A, Q5T6X5] | below the threshold

Biological target: T9, TJP3_3, O95049
Assay: holdup assay
Parameters: key: below the threshold = too weak to quantify, mostly under pKd 3.1 to 4
Conditions: plain residues with an end cap or a label only (N-terminal biotin on a linker: ado-ado)

Row | Binder | pKd
39 | QSARLWETSI [ADAM22, Q9P0K1] | below the threshold
40 | TLPRKRMSSI [GPRC6A, Q5T6X5] | below the threshold

Biological target: MAGI2_4, Q86UL8
Assay: holdup assay
Parameters: key: below the threshold = too weak to quantify, mostly under pKd 3.1 to 4
Conditions: plain residues with an end cap or a label only (N-terminal biotin on a linker: ado-ado)

Chain of MAGI2_4, Q86UL8 (Q86UL8 772-865): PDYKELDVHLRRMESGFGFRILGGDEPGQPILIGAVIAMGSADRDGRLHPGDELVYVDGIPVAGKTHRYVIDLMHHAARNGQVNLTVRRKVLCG

Row | Binder | pKd
41 | QSARLWETSI [ADAM22, Q9P0K1] | below the threshold
42 | TLPRKRMSSI [GPRC6A, Q5T6X5] | below the threshold

Biological target: FRMPD2_1, Q68DX3
Assay: holdup assay
Parameters: key: below the threshold = too weak to quantify, mostly under pKd 3.1 to 4
Conditions: plain residues with an end cap or a label only (N-terminal biotin on a linker: ado-ado)

Chain of FRMPD2_1, Q68DX3 (Q68DX3 770-861): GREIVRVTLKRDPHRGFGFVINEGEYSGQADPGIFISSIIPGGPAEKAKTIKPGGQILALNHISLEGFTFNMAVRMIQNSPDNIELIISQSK

Row | Binder | pKd
43 | QSARLWETSI [ADAM22, Q9P0K1] | below the threshold
44 | TLPRKRMSSI [GPRC6A, Q5T6X5] | below the threshold

Biological target: Inadl_8, Q8NI35
Assay: holdup assay
Parameters: key: below the threshold = too weak to quantify, mostly under pKd 3.1 to 4
Conditions: plain residues with an end cap or a label only (N-terminal biotin on a linker: ado-ado)

Chain of Inadl_8, Q8NI35 (Q8NI35 1425-1530): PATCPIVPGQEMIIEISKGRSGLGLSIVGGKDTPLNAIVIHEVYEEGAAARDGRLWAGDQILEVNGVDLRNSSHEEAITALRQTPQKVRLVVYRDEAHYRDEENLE

Row | Binder | pKd
45 | QSARLWETSI [ADAM22, Q9P0K1] | 3.81
46 | TLPRKRMSSI [GPRC6A, Q5T6X5] | 3.77

Biological target: PDLIM1, O00151
Assay: holdup assay
Parameters: key: below the threshold = too weak to quantify, mostly under pKd 3.1 to 4
Conditions: plain residues with an end cap or a label only (N-terminal biotin on a linker: ado-ado)

Chain of PDLIM1, O00151 (O00151 1-87): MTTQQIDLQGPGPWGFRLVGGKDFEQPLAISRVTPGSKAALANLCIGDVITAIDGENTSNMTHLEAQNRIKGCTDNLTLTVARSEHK

Row | Binder | pKd
47 | QSARLWETSI [ADAM22, Q9P0K1] | below the threshold
48 | TLPRKRMSSI [GPRC6A, Q5T6X5] | below the threshold

Biological target: Inadl_2, Q8NI35
Assay: holdup assay
Parameters: key: below the threshold = too weak to quantify, mostly under pKd 3.1 to 4
Conditions: plain residues with an end cap or a label only (N-terminal biotin on a linker: ado-ado)

Chain of Inadl_2, Q8NI35 (Q8NI35 238-335): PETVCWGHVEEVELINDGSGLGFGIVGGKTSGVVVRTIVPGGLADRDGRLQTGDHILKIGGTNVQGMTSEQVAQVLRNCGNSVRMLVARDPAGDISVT

Row | Binder | pKd
49 | QSARLWETSI [ADAM22, Q9P0K1] | below the threshold
50 | TLPRKRMSSI [GPRC6A, Q5T6X5] | below the threshold

Biological target: T10, APBA1_1, Q02410
Assay: holdup assay
Parameters: key: below the threshold = too weak to quantify, mostly under pKd 3.1 to 4
Conditions: plain residues with an end cap or a label only (N-terminal biotin on a linker: ado-ado)

Row | Binder | pKd
51 | QSARLWETSI [ADAM22, Q9P0K1] | below the threshold
52 | TLPRKRMSSI [GPRC6A, Q5T6X5] | below the threshold

Biological target: T11, LRRC7, Q96NW7
Assay: holdup assay
Parameters: key: below the threshold = too weak to quantify, mostly under pKd 3.1 to 4
Conditions: plain residues with an end cap or a label only (N-terminal biotin on a linker: ado-ado)

Row | Binder | pKd
53 | QSARLWETSI [ADAM22, Q9P0K1] | below the threshold
54 | TLPRKRMSSI [GPRC6A, Q5T6X5] | below the threshold
